Measurements from paper PMC12669046.

Target: T1, MS2 coat protein (fluorescently labelled) (MS2 virus) (UniProt P03612)
T1 sequence: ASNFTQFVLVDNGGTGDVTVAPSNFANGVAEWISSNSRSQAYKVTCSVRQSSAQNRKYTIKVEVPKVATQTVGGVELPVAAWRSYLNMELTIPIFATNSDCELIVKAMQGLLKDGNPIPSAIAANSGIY
Assay: RNA-MaP
Conditions: RNA-MaP on MiSeq chip: MS2 protein 0.7-1,500 nM, incubation 0.8-1.5 h (lowest concentrations) to 10-20 min (highest), buffer and temperature per ref. 14, not …

Sequence: AGUCCACGCUGACGUGGACAAAAGCAUGUACAUGAGGAUCACCCAUGUCAUGUACAAGCUUUUUGCUCGUCUUAAAA
- binding signal (200 nM input RNA S1 (on state), scale: fold): 110

Sequence: CCGAAAACGGGAACCUUAUUCUUUAUGCAUGUUCAGGAAACUGAGCAUGCAAACAUGAGGAUCACCCAUGUGUUGUGGGAUCAGC [6348262 C85 G11 Eli Fisker mod (ratio sensor, top R2)]
- binding signal (fold (qARLB, off Kd / on Kd)): 11

Sequence: GAUUACGAGAGUGUUAUUCUUUGGAGUGGGACAUGAGGAUCACCCAUGUAAAUGUACAUGUUAGCUGCUUAGCAGUUGACAUGAU [6248647 U62 jandersonlee mod (ratio sensor, top R3)]
- binding signal (fold (qARLB, off Kd / on Kd)): 34
